Data from PMC10397247.

What was measured:
[1] = molecular target: T1, 4H993-AA; experiment: two-hybrid library CCmax; details: mean of both orientations;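 also: natural log of median RNA to DNA barcode read ratio; higher means stronger binding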
T1 chain: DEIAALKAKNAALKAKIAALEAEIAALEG

[2] = molecular target: T2, 4H2949-AA; experiment: two-hybrid library CCmax; details: mean of both orientations;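 also: natural log of median RNA to DNA barcode read ratio; higher means stronger binding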
T2 chain: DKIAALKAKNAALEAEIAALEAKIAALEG

[3] = molecular target: T3, 4H2078-AA; experiment: two-hybrid library CCmax; details: mean of both orientations;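 also: natural log of median RNA to DNA barcode read ratio; higher means stronger binding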
T3 chain: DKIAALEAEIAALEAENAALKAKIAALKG

[4] = molecular target: T4, 4H678-AA; experiment: two-hybrid library CCmax; details: mean of both orientations;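 also: natural log of median RNA to DNA barcode read ratio; higher means stronger binding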
T4 chain: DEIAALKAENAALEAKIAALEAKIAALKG

[5] = molecular target: T5, 4H2729-AA; experiment: two-hybrid library CCmax; details: mean of both orientations;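 also: natural log of median RNA to DNA barcode read ratio; higher means stronger binding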
T5 chain: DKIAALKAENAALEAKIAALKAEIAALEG

[6] = molecular target: T6, 4H3844-AA; experiment: two-hybrid library CCmax; details: mean of both orientations;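 also: natural log of median RNA to DNA barcode read ratio; higher means stronger binding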
T6 chain: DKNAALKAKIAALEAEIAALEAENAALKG

[7] = molecular target: T7, 4H2883-AA; experiment: two-hybrid library CCmax; details: mean of both orientations
T7 chain: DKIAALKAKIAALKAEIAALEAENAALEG

[8] = molecular target: T8, 4H2837-AA; experiment: two-hybrid library CCmax; details: mean of both orientations
T8 chain: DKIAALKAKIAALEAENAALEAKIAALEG

[9] = molecular target: T9, 4H454-AA; experiment: two-hybrid library CCmax; details: mean of both orientations
T9 chain: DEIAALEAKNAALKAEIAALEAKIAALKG

[10] = molecular target: T10, 4H881-AA; experiment: two-hybrid library CCmax; details: mean of both orientations
T10 chain: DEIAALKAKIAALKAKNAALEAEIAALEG

[11] = molecular target: T11, 4H234-AA; experiment: two-hybrid library CCmax; details: mean of both orientations
T11 chain: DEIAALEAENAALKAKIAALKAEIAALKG

[12] = molecular target: T12, 4H2393-AA; experiment: two-hybrid library CCmax; details: mean of both orientations
T12 chain: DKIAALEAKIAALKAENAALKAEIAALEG

[13] = molecular target: T13, 4H3606-AA; experiment: two-hybrid library CCmax; details: mean of both orientations
T13 chain: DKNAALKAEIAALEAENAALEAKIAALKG

[14] = molecular target: T14, 4H2354-AA; experiment: two-hybrid library CCmax; details: mean of both orientations
T14 chain: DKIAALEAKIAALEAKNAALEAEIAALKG

[15] = molecular target: T15, 4H2466-AA; experiment: two-hybrid library CCmax; details: mean of both orientations
T15 chain: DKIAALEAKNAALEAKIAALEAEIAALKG

[16] = molecular target: T16, 4H3655-AA; experiment: two-hybrid library CCmax; details: mean of both orientations
T16 chain: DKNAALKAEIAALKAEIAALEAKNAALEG

[17] = molecular target: T17, 4H3921-AA; experiment: two-hybrid library CCmax; details: mean of both orientations
T17 chain: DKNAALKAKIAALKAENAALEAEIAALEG

[18] = molecular target: T18, 4H2277-AA; experiment: two-hybrid library CCmax; details: mean of both orientations
T18 chain: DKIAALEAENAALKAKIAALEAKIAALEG

[19] = molecular target: T19, 4H717-AA; experiment: two-hybrid library CCmax; details: mean of both orientations
T19 chain: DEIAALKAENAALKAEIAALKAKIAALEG

[20] = molecular target: T20, 4H566-AA; experiment: two-hybrid library CCmax; details: mean of both orientations
T20 chain: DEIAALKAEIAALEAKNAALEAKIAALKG

[21] = molecular target: T21, 4H2505-AA; experiment: two-hybrid library CCmax; details: mean of both orientations
T21 chain: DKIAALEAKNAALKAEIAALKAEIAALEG

[22] = molecular target: T22, 4H335-AA; experiment: two-hybrid library CCmax; details: mean of both orientations
T22 chain: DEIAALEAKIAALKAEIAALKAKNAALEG

[23] = molecular target: T23, 4H2642-AA; experiment: two-hybrid library CCmax
T23 chain: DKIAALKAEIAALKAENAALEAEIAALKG

[24] = molecular target: T24, 4H780-AA; experiment: two-hybrid library CCmax; details: mean of both orientations
T24 chain: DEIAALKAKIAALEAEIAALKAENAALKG

[25] = molecular target: T25, 4H3627-AA; experiment: two-hybrid library CCmax; details: mean of both orientations
T25 chain: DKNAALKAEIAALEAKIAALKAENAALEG

[26] = molecular target: T26, 4H3427-AA; experiment: two-hybrid library CCmax; details: mean of both orientations
T26 chain: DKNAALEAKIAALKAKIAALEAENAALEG

[27] = molecular target: T27, 4H2165-AA; experiment: two-hybrid library CCmax; details: mean of both orientations
T27 chain: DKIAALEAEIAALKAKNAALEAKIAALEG

[28] = molecular target: T28, 4H2944-AA; experiment: two-hybrid library CCmax; details: mean of both orientations
T28 chain: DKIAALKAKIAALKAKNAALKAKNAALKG

[29] = molecular target: T29, 4H3112-AA; experiment: two-hybrid library CCmax; details: mean of both orientations
T29 chain: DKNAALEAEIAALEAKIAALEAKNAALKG

[30] = molecular target: T30, 4H2575-AA; experiment: two-hybrid library CCmax; details: mean of both orientations
T30 chain: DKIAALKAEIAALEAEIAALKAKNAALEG

[31] = molecular target: T31, 4H2754-AA; experiment: two-hybrid library CCmax; details: mean of both orientations
T31 chain: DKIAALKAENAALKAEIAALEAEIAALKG

[32] = molecular target: T32, 4H317-AA; experiment: two-hybrid library CCmax; details: mean of both orientations
T32 chain: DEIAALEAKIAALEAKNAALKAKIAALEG

[33] = molecular target: T33, 4H342-AA; experiment: two-hybrid library CCmax; details: mean of both orientations
T33 chain: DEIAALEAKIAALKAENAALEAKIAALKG

[34] = molecular target: T34, 4H605-AA; experiment: two-hybrid library CCmax; details: mean of both orientations
T34 chain: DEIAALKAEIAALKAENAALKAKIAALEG

[35] = molecular target: T35, 4H2151-AA; experiment: two-hybrid library CCmax; details: mean of both orientations
T35 chain: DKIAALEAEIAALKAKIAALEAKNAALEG

[36] = molecular target: T36, 4H2617-AA; experiment: two-hybrid library CCmax; details: mean of both orientations
T36 chain: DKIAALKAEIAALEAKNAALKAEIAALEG

[37] = molecular target: T37, 4H429-AA; experiment: two-hybrid library CCmax; details: mean of both orientations
T37 chain: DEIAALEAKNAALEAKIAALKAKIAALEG

[38] = molecular target: T38, 4H2190-AA; experiment: two-hybrid library CCmax; details: mean of both orientations
T38 chain: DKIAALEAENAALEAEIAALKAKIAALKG

[39] = molecular target: T39, 4H3343-AA; experiment: two-hybrid library CCmax; details: mean of both orientations
T39 chain: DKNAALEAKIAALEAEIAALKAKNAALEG

[40] = molecular target: T40, 4H1867-AA; experiment: two-hybrid library CCmax
T40 chain: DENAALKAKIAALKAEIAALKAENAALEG

[41] = molecular target: T41, 4H48-AA; experiment: two-hybrid library CCmax; details: mean of both orientations
T41 chain: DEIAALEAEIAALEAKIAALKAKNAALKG

[42] = molecular target: T42, 4H794-AA; experiment: two-hybrid library CCmax; details: mean of both orientations
T42 chain: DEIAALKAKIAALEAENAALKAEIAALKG

[43] = molecular target: T43, 4H906-AA; experiment: two-hybrid library CCmax; details: mean of both orientations
T43 chain: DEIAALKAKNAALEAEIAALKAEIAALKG

[44] = molecular target: T44, O6-bA; experiment: two-hybrid library CCNG1
T44 chain: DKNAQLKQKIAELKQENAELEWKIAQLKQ

[45] = molecular target: T45, O5-bA; experiment: two-hybrid library CCNG1
T45 chain: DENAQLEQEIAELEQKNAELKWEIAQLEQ

[46] = molecular target: T46, O7-bA; experiment: two-hybrid library CCNG1
T46 chain: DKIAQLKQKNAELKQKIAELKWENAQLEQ

[47] = molecular target: T47, O8-bA; experiment: two-hybrid library CCNG1
T47 chain: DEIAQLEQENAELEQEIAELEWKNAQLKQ

[48] = molecular target: T48, O4-bA; experiment: two-hybrid library CCNG1
T48 chain: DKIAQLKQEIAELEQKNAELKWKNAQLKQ

[49] = molecular target: T49, O3-bA; experiment: two-hybrid library CCNG1
T49 chain: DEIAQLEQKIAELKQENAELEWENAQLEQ

[50] = molecular target: T50, O9-bA; experiment: two-hybrid library CCNG1
T50 chain: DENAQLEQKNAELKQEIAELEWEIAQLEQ

Binder: DENAALKAKIAALKAEIAALKAENAALEG [4H1867-AA]
- interaction score [1]: -1.05
- interaction score [2]: -1.06
- interaction score [3]: -0.776
- interaction score [4]: -1.03
- interaction score [5]: -1.46
- interaction score [6]: 1.01
- interaction score [7]: -0.898
- interaction score [8]: -1.19
- interaction score [9]: -0.172
- interaction score [10]: -1.8
- interaction score [11]: -0.943
- interaction score [12]: -1.58
- interaction score [13]: -1.11
- interaction score [14]: -1.35
- interaction score [15]: -1.6
- interaction score [16]: -0.0304
- interaction score [17]: -1.88
- interaction score [18]: -1.23
- interaction score [19]: -1.28
- interaction score [20]: -1.59
- interaction score [21]: -1.62
- interaction score [22]: -0.988
- interaction score [23]: -2.13
- interaction score [24]: -0.525
- interaction score [25]: 0.353
- interaction score [26]: -1.26
- interaction score [27]: -1.77
- interaction score [28]: -0.512
- interaction score [29]: 0.579
- interaction score [30]: 1.63
- interaction score [31]: 1.11
- interaction score [32]: -1.01
- interaction score [33]: -0.881
- interaction score [34]: -1.5
- interaction score [35]: -1.27
- interaction score [36]: -1.4
- interaction score [37]: -1.51
- interaction score [38]: -0.428
- interaction score [39]: 0.12
- interaction score [40]: 0.169
- interaction score [41]: 1.5
- interaction score [42]: -1.4
- interaction score [43]: -1.71

Binder: DEIAQLEQKIAELKQENAELEWENAQLEQ [O3-bA]
- interaction score [44]: -0.618
- interaction score [45]: -0.75
- interaction score [46]: -0.831
- interaction score [47]: -1.12
- interaction score [48]: 2.34
- interaction score [49]: -0.685
- interaction score [50]: -0.712
